# Reference: IntAct's records for PubMed 22512862
# B1: Phosphocarrier protein HPr (Bacillus subtilis), P08877 (parent)
# chain: MAQKTFKVTADSGIHARPATVLVQTASKYDADVNLEYNGKTVNLKSIMGVMSLGIAKGAEITISASGADENDALNALEETMKSEGLGE
# partner: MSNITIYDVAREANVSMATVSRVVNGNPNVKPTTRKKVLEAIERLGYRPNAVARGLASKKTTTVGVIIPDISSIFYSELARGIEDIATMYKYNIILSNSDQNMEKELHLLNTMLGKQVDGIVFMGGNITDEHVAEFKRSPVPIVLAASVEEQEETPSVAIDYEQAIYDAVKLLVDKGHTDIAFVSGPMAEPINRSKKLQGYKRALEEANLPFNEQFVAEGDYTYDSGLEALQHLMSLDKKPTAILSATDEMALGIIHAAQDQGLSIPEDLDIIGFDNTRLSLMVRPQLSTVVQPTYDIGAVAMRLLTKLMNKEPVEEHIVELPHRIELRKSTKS
# Variants of: B1
# Details: with ccpa_bacsu ccpA
row,Variant,effect of a mutation on the interaction
1,S46A,disrupting interaction
